Laboratory results published in the DeepSol protein solubility set.

Experiment: soluble on expression in E. coli; label from the status in PepcDB or PDB records

Sequence	soluble on expression in E. coli
MAYTLHKMTKKLHKQKFFQFAAFIQKKFDSPLFKAIRKRSCHWSDISNHNDNYDLTVASYNVHKCIGVDKVFNPTRIVQVITELQVDILALQEADKRFGERIGLIDLQLLKAETGLIPVPLNTMSPHGHGWHGNALFLRKGHVCDTLQITLPGIEPRGAVIADLEMEVGPIRVIAAHFGLLRHSRNQQTKMLLSLLQKRPLMPTLLIGDFNEWRIGKGSSLNHFAPYFDSTVGTVPSFPSRFPLLALDRILAFPHQLVIRIENHHSPLARIASDHLPIKAYLDLSHAMATLKK	not soluble
MCAKIALLLVLVGAASAAVLPDKFYGTFDLDHSENFDEYLTAKGYGWFTRKLVTFATFKKVFTKTSNKNLFDYSNLTSKKDVHYKNVQLGKAFQGEGLDSTKHEITFTLKDGHLFEHHKPLEGGDAKEETYEYLFDKEFLLVRMSFNGVEGRRFYKRLP	not soluble
MCEISVVMPVYNAEMHIKDAIESVLEQSFVDFEFILIDDGSTDHTSSIIQSYNDKRVRLIQNSHNFIESLNLGIENSLGKYMARMDGDDIMHIDRLKIQYAIMQEYPDVTVCGTWMNSIGTYSQTNGLLSTLSGWVEQPLLKFTKGNFLFHPTTMIRMDFLKKNALKYENYPYAEDFKFWVEIAKSGGRFYIDSQPLLYYRISDSQVSSQKSSEQRATTESIINEVLEYLMELNKNEYPELAAAYGDLCKLYEKQLLTKCEVLTLFQTLFSKNEKKLNLLEHHHHHH	soluble
MCEQGVSYYNSQELKCCKLCKPGTYSDHRCDKYSDTICGHCPSDTFTSIYNRSPWCHSCRGPCGTNRVEVTPCTPTTNRICHCDSNSYCLLKASDGNCVTCAPKTKCGRGYGKKGEDEMGNTICKKCRKGTYSKTGHHHHHH	soluble
MCITFIKTAKSSLDKYKLILLNNRDEQLLRPTKEMHWHDGILSGVDKQENARGTWLGLNENGRIGMMLSITQTQESKNLHAPSRGGIVNEFLNANDTSKMIESLKKCASKYNGFQLVAVEKNSTGLYEVRTLANQQVDEIEVCQLKDEYHVVSNSPPTKPYQKAVQGKKLLREHLENSDQFSVDQIFEKLLSIAKNTTQWYPDAQLQYQTQNVEEYNRPLSAIFIKYPEGTRMYGTRCHTLITVDQKDKINILERRLLPEQSTWHDARFEFVLNGS	not soluble
MCLEPIIAPISSELLEQELTADRFLRMTNKAGNEIYVFTAEEAPHCMKEVGRLREEAFRHYGGGTGKAIDIDEFDTMPGSYKQLIVWDPQNKAILGGYRFIYGRDVAFDTDGKPLLATAEMFRFSDAFLHDYLPYTVELGRSFVSLQYQSTRMGTKAIFVLDN	not soluble
MCLNRVNEWVLEFNSRTKKLLIDLNKRLPGAKFSFADTYPAVLDLINNPTHYGFKIANTSCCNVDTSVGGLCLPNSKMCKNRQDFVFWDAFHPSDSANQILADHLFSSLLSSSSPSPAPKPRQ	not soluble
MCMIVYFFFIHKPLAFYFIRLFHPHPFPVVLDHILLLISSLIGFKSQDSSFRHQNSDCQMNVFQVIIFLLSVLAVFSSADLSIDGESLVLSINEEGPIKVRRARETGEH	not soluble
MCMSLRESAAAADAGAGPLAGSARDLLAQWNGGEDVWVFAYGSLIWRPDFAWQERRLATVRGYHRSLLWSHDHRGSPDNPGLVFGLDRGGCCRGVAFRVAGRDVPEVFQALWHREMSGGAYKPRWLRCHTGQAPVRGLAFVPDRRCRHYAGALSDELLIRAVRQAVGRSGACLDYVRETHRALNEHGIVDWRLGALVDRLAQPLEHHHHHH	not soluble
MCMVKVWVEKLLDEPELYILRLDDSEIKHFEAAWSIPEGITYNAYLMKVGDAVVLFDTWKGEYTEKFLESLSTLVDPKEITHIIVHHTEPDHSGALPKLLELNEYRAKLIGTTFAKNLLQGFYGDKVVENFHTIKDGEEVKIGNRTFRFITVPWLHWPDTMITYDVEDKLIFSCDAGGGYGIPEAIDDSDEDVVKKYLPYVTKYIVTVIGHYHKYIVQNIKKLKELGIIENANMILPGHGLIWRKSPTRIFEHYERVGAGIPTKDKVLVIYDSMYGFVEKRMSVVIEELKRYGKKPVVYRFTDKENPAISDILGEVPDSEALVIGVSTYEADIHPRMRCALYEILDKANYEKPVLIVGAFGWGGVAGKKVETLISRSKFELVDVVETKGRMTSEDEERLREAVRKLIQWQL	soluble
MCTSLTLETKNGQHLFARTMDFTLDMNQEVIIIPRHYQWNNITGEIINTKHATVGMGINHQGRIIMADGVNEAGMTCATLYFPGFATYSQSIDDNTTNLAPFDFVTWSLTQFNSVKELKKSVDSITFLDIPLPDLGLTPPLHWILADKWGDCIVLDPTSEGLKLYDNPLGVMTNSPEFNWHLQNLRQYIGLKSQPFAPTEWSNLPLSAFGQGSGSMGLPGDFTPPSRFVRAAYGKQNIQGIDSEEEGVSALFHILSNCEVPKGGVITEEGALDNTIYTSVMCMESGTYYYHTYDCRQIIAVHLFHENLDTDEIKAYPFQRKQKIFYEN	not soluble
MDAARFPADARVRVLARRFPPYHRDSPCLAILDRFLHDPTLSAAAVVDDAMRPVGLIDRYSLVEQFLHPYSRDLYHKHSIAAFMDPEPVIVEADSSIDDLSRIIIDAGMRHMVSGFIVTEDGLYLGIGSGHDLFEEVANRKQNHLYHLAHYDPLTSLPNRLLLNDRLKRACLRGQRGGYRIALLFIDLDRFKLVNDTLGHAAGDQLLQGVAGRFAACVRKVDTVARLGGDEFTVLLEPVQGPDEALAVAAKLAQSLERPFLIQNHEITTSASIGVVLFPEHDATVEGLMRKADAAMYCAKREGRNRFALFTEEMNSTVVERVTLESYLNAALEKGEFCCHFQPQMATADDRIVGVEALLRWTNPVLGRVPPLKFIPVAEDTGLILPLGLWALETACAQQVRWLSQGLPPLRMAVNISPLQFRNREFCDQVRAIVQRTGIRAEHLELELTESAVMADAESSVGILRELRDSGIRLAIDDFGTGYSSLSYLRKFPLDRLKIDRSFVSGIDRIPANELIVKAIVALGGSLGLDVIAEGVETPEELECIERCGCSEYQGFRLSEPLTAEDFAHWFEDSGYVLEHHHHHH	not soluble
MDAIMMEHRNDFWVFGYGSLMWRPGFAHVETVRARLHGYRRSLCIYSHVHRGTPDHPGLVLGLDTGGSCLGIAFRVPGDMTDEVMTYLREREMANKVYHEKKLHLRLADGRIVEAVAYVADRRHRQYAGRMTSEKAAAIIASAQGESGANIDYVTNTLMHLRNMRVRDHALEHINELVLAAASRQANNAALEHHHHHH	soluble
MDDELRGLLARYARGELSADDARRAILRYPKWRVAEIDGELETVALDDGTPMLIAESSASDGREYSGLELVRDIAPLVGGLSFDPDEPWGSAFRPGALPELQNWARTVELEDAVAKPGPGQRDLLYEGPWWVAVSPGTGRPAVHRADGLDVITIMTAPDAAATFRRTERHRGLDVVRLGPALWGDLAKRSDFDGVRLNPLRPLAQLWPPHVPAMLVAGCDPRPNAEPLPARTVAEIHLWLDQHGARQEKRELSNRATPVGEVTVARAWWNYDRREIAFTRVAPASDTEGLGSVPSRILCAGKLRQSIQSKLAGLPRLTWRADAWHRQRAALAVGWALELEKLVCGERVPFAALRTPEGAHLWHLEPQAFTARAIRKLRDRAASFR	soluble
MDDERKRKKYTLYLHPEKAADFQTLEAIESVPRSERGELFRNAFISGMALHQLDPRLPVLLTAILSEEFSADQVVTLLSQTTGWKPSQADIRAVLTELGASQSVEKMPPSATDSVQEAMNDVRLKMKKLF	soluble
MDDFATSSRVFEDDNDAFDFNPLEDFAFDDIDDDDDIVSGILDDGPYSIPNADNKPKFKSVSFDNAETPEERIETLFNQMPTQDDLLLGILDASQTPIFTDDLEQKVEELKQHHHSVYSPMSYCRLLERAGAIEQTNNEGLPLKEVEVEPDKVVVEGVEYWKVAAAPDVYWTATPAGLAHFQAYQPMELLRQMVQNEPQYEEIFRMVLSATAADGGESVKNIDDLVSDDPILQSPRRYAMYFIDKLERAGGIQWRGAWVAIQAGKDFLAELNA	not soluble
MDDNQIINLFFQRNEDAINAVDEKYGSKLNALAANILQSREDGLECVNDMYMKAWNSIPPARPEYLFAFLATSARNIAIDMIRKNNAGKRQAKVVELTKELEECIGDGGLQTHLDKEDIGEMLSHFLETVDKNKRIIFLRRYWYSDSIKDISERMQMSESAVKVTLHRTRKELRKYLESEGLYL	not soluble
MDDRLFRNAMGKFATGVTVITTELNGAVHGMTANAFMSVSLNPKLVLVSIGEKAKMLEKIQQSKKYAVNILSQDQKVLSMNFAGQLEKPVDVQFEELGGLPVIKDALAQISCQVVNEVQAGDHTLFIGEVTDIKITEQDPLLFFSGKYHQLAQNEKVETSS	soluble
